T1: Drosophila melanogaster ecdysone receptor (monomeric) (Drosophila melanogaster, UniProt P34021 1-878)
T1 construct: also called EcR; dmEcR
T1 sequence (looked up): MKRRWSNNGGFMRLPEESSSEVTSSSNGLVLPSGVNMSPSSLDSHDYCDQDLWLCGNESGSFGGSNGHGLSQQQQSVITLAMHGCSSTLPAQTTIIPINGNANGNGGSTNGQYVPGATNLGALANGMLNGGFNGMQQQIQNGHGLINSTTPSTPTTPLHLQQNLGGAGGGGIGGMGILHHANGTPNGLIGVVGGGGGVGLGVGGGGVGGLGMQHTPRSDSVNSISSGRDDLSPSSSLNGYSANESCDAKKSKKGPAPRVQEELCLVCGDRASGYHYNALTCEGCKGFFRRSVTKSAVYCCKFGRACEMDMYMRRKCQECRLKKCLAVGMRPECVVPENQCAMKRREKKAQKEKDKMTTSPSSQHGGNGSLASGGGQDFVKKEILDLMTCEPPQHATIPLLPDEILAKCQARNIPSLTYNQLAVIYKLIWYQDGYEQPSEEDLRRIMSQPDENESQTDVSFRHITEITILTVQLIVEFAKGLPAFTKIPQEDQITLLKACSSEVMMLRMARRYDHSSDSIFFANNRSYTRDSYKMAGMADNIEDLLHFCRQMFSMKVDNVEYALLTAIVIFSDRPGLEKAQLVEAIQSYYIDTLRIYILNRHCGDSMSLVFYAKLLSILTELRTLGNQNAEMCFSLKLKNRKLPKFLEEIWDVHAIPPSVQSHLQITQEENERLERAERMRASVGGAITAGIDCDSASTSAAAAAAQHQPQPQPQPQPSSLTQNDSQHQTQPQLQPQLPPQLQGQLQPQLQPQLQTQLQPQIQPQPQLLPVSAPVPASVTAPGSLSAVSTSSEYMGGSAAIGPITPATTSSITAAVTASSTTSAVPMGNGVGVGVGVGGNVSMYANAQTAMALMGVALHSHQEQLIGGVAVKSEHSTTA

B1: Drosophila melanogaster ultraspiracle protein (monomeric) (receptor, UniProt P20153 1-508, looked up)
chain: MDNCDQDASFRLSHIKEEVKPDISQLNDSNNSSFSPKAESPVPFMQAMSMVHVLPGSNSASSNNNSAGDAQMAQAPNSAGGSAAAAVQQQYPPNHPLSGSKHLCSICGDRASGKHYGVYSCEGCKGFFKRTVRKDLTYACRENRNCIIDKRQRNRCQYCRYQKCLTCGMKREAVQEERQRGARNAAGRLSASGGGSSGPGSVGGSSSQGGGGGGGVSGGMGSGNGSDDFMTNSVSRDFSIERIIEAEQRAETQCGDRALTFLRVGPYSTVQPDYKGAVSALCQVVNKQLFQMVEYARMMPHFAQVPLDDQVILLKAAWIELLIANVAWCSIVSLDDGGAGGGGGGLGHDGSFERRSPGLQPQQLFLNQSFSYHRNSAIKAGVSAIFDRILSELSVKMKRLNLDRRELSCLKAIILYNPDIRGIKSRAEIEMCREKVYACLDEHCRLEHPGDDGRFAQLLLRLPALRSISLKCQDHLFLFRITSDRPLEELFLEQLEAPPPPGLAMKLE
notes: also called Usp; dmUsp
B2: human retinoid X receptor alpha (monomeric) (receptor, UniProt P19793 1-462, looked up)
chain: MDTKHFLPLDFSTQVNSSLTSPTGRGSMAAPSLHPSLGPGIGSPGQLHSPISTLSSPINGMGPPFSVISSPMGPHSMSVPTTPTLGFSTGSPQLSSPMNPVSSSEDIKPPLGLNGVLKVPAHPSGNMASFTKHICAICGDRSSGKHYGVYSCEGCKGFFKRTVRKDLTYTCRDNKDCLIDKRQRNRCQYCRYQKCLAMGMKREAVQEERQRGKDRNENEVESTSSANEDMPVERILEAELAVEPKTETYVEANMGLNPSSPNDPVTNICQAADKQLFTLVEWAKRIPHFSELPLDDQVILLRAGWNELLIASFSHRSIAVKDGILLATGLHVHRNSAHSAGVGAIFDRVLTELVSKMRDMQMDKTELGCLRAIVLFNPDSKGLSNPAEVEALREKVYASLEAYCKHKYPEQPGRFAKLLLRLPALRSIGLKCLEHLFFFKLIGDTPIDTFLMEMLEAPHQMT
notes: also called RXR; hRXR
B3: E5U: fusion protein: Drosophila EcR at amino terminus, 5 linker segments (65 amino acids), ultraspiracle protein (protein)
chain: MKRRWSNNGGFMRLPEESSSEVTSSSNGLVLPSGVNMSPSSLDSHDYCDQDLWLCGNESGSFGGSNGHGLSQQQQSVITLAMHGCSSTLPAQTTIIPINGNANGNGGSTNGQYVPGATNLGALANGMLNGGFNGMQQQIQNGHGLINSTTPSTPTTPLHLQQNLGGAGGGGIGGMGILHHANGTPNGLIGVVGGGGGVGLGVGGGGVGGLGMQHTPRSDSVNSISSGRDDLSPSSSLNGYSANESCDAKKSKKGPAPRVQEELCLVCGDRASGYHYNALTCEGCKGFFRRSVTKSAVYCCKFGRACEMDMYMRRKCQECRLKKCLAVGMRPECVVPENQCAMKRREKKAQKEKDKMTTSPSSQHGGNGSLASGGGQDFVKKEILDLMTCEPPQHATIPLLPDEILAKCQARNIPSLTYNQLAVIYKLIWYQDGYEQPSEEDLRRIMSQPDENESQTDVSFRHITEITILTVQLIVEFAKGLPAFTKIPQEDQITLLKACSSEVMMLRMARRYDHSSDSIFFANNRSYTRDSYKMAGMADNIEDLLHFCRQMFSMKVDNVEYALLTAIVIFSDRPGLEKAQLVEAIQSYYIDTLRIYILNRHCGDSMSLVFYAKLLSILTELRTLGNQNAEMCFSLKLKNRKLPKFLEEIWDVHAIPPSVQSHLQITQEENERLERAERMRASVGGAITAGIDCDSASTSAAAAAAQHQPQPQPQPQPSSLTQNDSQHQTQPQLQPQLPPQLQGQLQPQLQPQLQTQLQPQIQPQPQLLPVSAPVPASVTAPGSLSAVSTSSEYMGGSAAIGPITPATTSSITAAVTASSTTSAVPMGNGVGVGVGVGGNVSMYANAQTAMALMGVALHSHQEQLIGGVAVKSEHSTTAGPTGPGPGGGSGGGSGTGPGGGSGGGSGTGPGGGSGGGSGTGPGGGSGGGSGTGPGGGSGGGSGTMDNCDQDASFRLSHIKEEVKPDISQLNDSNNSSFSPKAESPVPFMQAMSMVHVLPGSNSASSNNNSAGDAQMAQAPNSAGGSAAAAVQQQYPPNHPLSGSKHLCSICGDRASGKHYGVYSCEGCKGFFKRTVRKDLTYACRENRNCIIDKRQRNRCQYCRYQKCLTCGMKREAVQEERQRGARNAAGRLSASGGGSSGPGSVGGSSSQGGGGGGGVSGGMGSGNGSDDFMTNSVSRDFSIERIIEAEQRAETQCGDRALTFLRVGPYSTVQPDYKGAVSALCQVVNKQLFQMVEYARMMPHFAQVPLDDQVILLKAAWIELLIANVAWCSIVSLDDGGAGGGGGGLGHDGSFERRSPGLQPQQLFLNQSFSYHRNSAIKAGVSAIFDRILSELSVKMKRLNLDRRELSCLKAIILYNPDIRGIKSRAEIEMCREKVYACLDEHCRLEHPGDDGRFAQLLLRLPALRSISLKCQDHLFLFRITSDRPLEELFLEQLEAPPPPGLAMKLE

Experiments:
[1] = target: T1, Drosophila melanogaster ecdysone …; assay: gel mobility shift on 32P-labelled EcRE probe, proteins translated in vitro
Experimental: The reactions were allowed to proceed at 23° C. for 5 minutes at which time ligand or vehicle was added and the reaction allowed to continue for 20 additional minutes. Band volumes were quantified using laser scanning densitometry.

EcRE probe = assay: Gel mobility shift analysis of EcRE probe binding by FDs; conditions: 1 μM murA vs vehicle, extracts of transfected 293 cells
Experimental: Preparation of the invention fusion protein FDs for gel shift analysis by transient transfection into 293 cells was as follows: 300 ng of individual receptor plasmids and 100 ng pCH110 internal control plasmid were cotransfected into 293 cells at 60% density in Costar 6-well plates. One well of each group was treated with 1 μM murA as ligand at the time of transfection. 40 hours later, extracts of transfected 293 cells were made by scraping the cells from a well into a low volume of phosphate buffered saline, pelleting the cells, resuspending them in 200 μl 5×gel shift buffer (Yao et al., supra 1992), and sonicating with a Kontes cell disrupter for three 10-sec. bursts at output level 30. The extracts were then centrifuged to clear the lysate and the protein was quantified. […]
Comparative gel mobility shift analyses of FDs with control in vitro translated receptor complexes were performed using double stranded EcRE probes and labeled by Klenow fill using ^32P-dCTP and cold dGAT by standard methods. […] Band volumes were quantified using laser scanning densitometry.
An autoradiogram of FDs and controls treated either with control vehicle or with 1 μM of murA as ligand was made with markers indicating endodimer FD or wild type receptor-binding complex band shifts. […] FIG. 2A is a graph that quantifies endodimer-sized band volumes obtained from the autoradiogram.

[2] = system: E4-luc reporter plasmid in 293 cells; assay: Transient transfection luciferase transactivation assay with E4-luc reporter; type: cell-based, human
Experimental: For quantitative transactivation analysis, transfections were performed in triplicate in 24-well plates by calcium-phosphate co-precipitation with 100 ng of an individual receptor, the reporter plasmid E4-luc, and pCH110 (SV40-β-galactosidase) as an internal control. Briefly, the reporter plasmid, E4-luc, was constructed of 4-tandem EcREs inserted upstream of a thymidine kinase gene minimal promoter directing luciferase expression. […] 1 μM ligand was added at the time of transfection, and the cells were harvested for luciferase assay 40 hours later. Harvested cell extracts were split, and one part was analyzed in a luminometer for luciferase activity and the other part was analyzed for β-galactosidase activity using an orthonitrophenyl galactoside assay by standard methods. Luciferase levels were normalized to β-galactosidase values to correct for slight differences in transfection efficiency.

| Molecule | binding result [1] | relative-fold increase in response element binding (endodimer band) resulting from ligand treatment (EcRE probe) [fold] | Rel. Ind. = relative induction of individual receptor groups ([2]; +ligand (1 μM murA) versus −ligand) [fold] | +Lig/E4 = luciferase activity vs. reporter only with ligand ([2]; transiently co-transfected 293 cells, 1 μM murA, relative to E4-luc reporter only) | −Lig/E4 = luciferase activity vs. reporter only without ligand ([2]; transiently co-transfected 293 cells, without ligand, relative to E4-luc reporter only) |
| --- | --- | --- | --- | --- | --- |
| B1 | binds | – | – | – | – |
| B2 | binds | – | – | – | – |
| B3 | – | 0.9 | 1.6 | 0.62 | 0.41 |

Reference: US7057015B1, “Hormone receptor functional dimers and methods of their use” (The Salk Institute for Biological Studies, priority 1999, dated 2006)
